Measured values: PMC7016005 (2020)

B1: mouse Twist1, wildtype [mouse] / mouse E2A [mouse] (parent complex)
chain 1: MMQDVSSSPVSPADDSLSNSEEEPDRQQPASGKRGARKRRSSRRSAGGSAGPGGATGGGIGGGDEPGSPAQGKRGKKSAGGGGGGGAGGGGGGGGGSSSGGGSPQSYEELQTQRVMANVRERQRTQSLNEAFAALRKIIPTLPSDKLSKIQTLKLAARYIDFLYQVLQSDELDSKMASCSYVAHERLSYAFSVWRMEGAWSMSASH
chain 2: MMNQSQRMAPVGSDKELSDLLDFSMMFPLPVANGKSRPASLGGTQFAGSGLEDRPSSGSWGSSDQNSSSFDPSRTYSEGAHFSDSHSSLPPSTFLGAGLGGKGSERNAYATFGRDTSVGTLSQAGFLPGELSLSSPGPLSPSGIKSSSQYYPSFPSNPRRRAADGGLDTQPKKVRKVPPGLPSSVYPPSSGDSYSRDAAAYPSAKTPSSAYPSPFYVADGSLHPSAELWSTPSQVGFGPMLGDGSSPLPLAPGSSSVGSGTFGGLQQQDRMGYQLHGSEVNGSLPAVSSFSAAPGTYSGTSGHTPPVSGAAAESLLGTRGTTASSSGDALGKALASIYSPDHSSNNFSPSPSTPVGSPQGLPGTSQWPRAGAPSALSPNYDAGLHGLSKMEDRLDEAIHVLRSHAVGTASDLHGLLPGHGALTTSFTGPMSLGGRHAGLVGGSHPEEGLTSGASLLHNHASLPSQPSSLPDLSQRPPDSYSGLGRAGTTAGASEIKREEKEDEEIASVADAEEDKKDLKVPRTRTSPDEDEDDLLPPEQKAEREKERRVANNARERLRVRDINEAFKELGRMCQLHLSSEKPQTKLLILHQAVAVILSLEQQVRERNLNPKAACLKRREEEKVSGVVGDPQLALSAAHPGLGEAHNPAGHL

Variants of: B1
Experiment: co-immunoprecipitation (Flag-IP), blot quantified by ImageJ; Flag-E2A bait, Twist1-Myc prey; n = 3; parent: 1; read off a plot

Row | response | Variant
1 | ~0.05 relative expression (/GAPDH) | chain 1 S192P
2 | ~0.52 relative expression (/GAPDH) | chain 1 A190T
3 | ~1.6 relative expression (/GAPDH) | chain 1 F191S
